Measurements taken from paper PMC4072569 (Molecular Biology of the Cell, 2014).

B1: Blt1p-hexahistidine (natural protein, S. pombe, UniProt O74338 1-700, looked up)
chain: MSKSAFTSKSQLKGIDGSFNDPFRQPSMNLPTPPHDDGLPSIPRSTALPNLSNRLSPYSHRNYLPIPEADSRNLEVLNSISLTTGSVVNQINKLYQRSCDNANYLQDLRSLILQTPTAEANATQVTESLNQIQKILQEASSKDREQIVQVIKELNKGNSLEVRRELGNCLAHLKKGTLNIDNALQASLQKYWKELQYFNVSKDKLLSLEESIKLLSARLEETDTPSSTHWIEINAGFKEVGDELSENFQRKQEILSGLQNNVILRTNNRKPVGSDGSNSNFNGGEEQMDSKDQEEIQDYLNSLLSVHEKDGVLLQKFHNSYVQYQKLAVALSKYENFDADKLFQQMNLAKQSNETLLQTLTEQTDQLLSFKETMDSFKFILGPSMENQALQQGILAEQQDLVAQLRDIVLRSETLAENPSNMPGSCLPGASSNTADEFTEQLNLLKNEVARLSAICPSPNSGINASVLTNADNLEKENLLLVNNNAFKVDDRSVSSVALDDHNRQLQMNVEELEGKKADLTSKINRLDKDFVKLNTTYSLLTDQVKTKQLALQEIESRVIRLEERLNMLQKLSMQPAISSSSEFVPIESHPSSSAVVPIEEPKNSIIEKKRVPHNAARNSVNLEVTLPNSKKRFSSFSGSSSKLPVRPSTALTDKRKPSWSRRLAAAIGFSSGSPEKKHVITSSDAGHQRSKSRSFSSKM

Tests used:
AUC = biological target: the molecule itself; assay: AUC
Blt1p-hexahistidine = biological target: B1; assay: pull-down

B1
stoichiometry N (AUC): 4

B2: Mob1p-mEGFP (natural protein, S. pombe, UniProt O94360 1-210, looked up)
chain: MFGFSNKTAKTFRVRKTEAGTKHYQLRQYAEATLGSGSLMEAVKLPKGEDLNEWIAMNTMDFYTQINMLYGTITEFCTAASCPQMNAGPSYEYYWQDDKIYTKPTRMSAPDYINNLLDWTQEKLDDKKLFPTEIGVEFPKNFRKVIQQIFRRLFRIYAHIYCSHFHVMVAMELESYLNTSFKHFVFFCREFGLMDNKEYAPMQDLVDSMV
percent pulled down from lysate (Blt1p-hexahistidine): 42%

B3: Sid2p-mEGFP (natural protein, S. pombe, UniProt Q09898 1-607, looked up)
chain: MNRVNDMSPVEGDLGLQLSSEADKKFDAYMKRHGLFEPGNLSNNDKERNLEDQFNSMKLSPVASSKENYPDNHMHSKHISKLPIASPIPRGLDRSGELSYKDNNHWSDRSSTGSPRWENGSMNLSVEEMEKVVQPKVKRMATICQMFFLDHYFEQLHYLYTRKQRARLFEEQLLKEPDSRRDELVKRYNGRERVYLRKRRTRISHGDFQTITQVGQGGYGSVWLARKRDTKEIVALKIMNKSVLHKMDEIRHVLTERDILTTANSEWLVRLLYAFQDTSNIYLAMEFVPGGDFRTLLSNSGVLRDHHAKFYATEMFLAIDALHQLGYIHRDLKPENFLVGASGHIKLTDFGLSSGIISKKKIESMKIRLQEVNNVVVPERSMRERRQVFRTLLSQDPVYAHSVVGSPDYMAPEVLRGENYNHSVDYWSLGCIMYECLSGFPPFSGSNVNETWSNLKNWRKCFQRPHYDDPRDLEFNWRDDAWDFVCHCITDPKDRFCSLKQVMQHPYFSKIDWKNVRTAYRPPFVPDLNSEIDAGYFDDFTNENDMSKYKEVHEKQAAIANMVNTFNKPKRNAFIGFTFRHQKNSHPTSSSSALSSPLSAPSFGTLL
percent pulled down from lysate (Blt1p-hexahistidine): 22%

B4: Cdc15p-mEGFP (natural protein, S. pombe, UniProt Q09822 1-927, looked up)
chain: MEVNGVSQSEAAPYVTKSSVKFRDNFWGSEDAGMDALMSRTKSSLSVLESIDEFYAKRASIEREYASKLQELAASSADIPEVGSTLNNILSMRTETGSMAKAHEEVSQQINTELRNKIREYIDQTEQQKVVAANAIEELYQKKTALEIDLSEKKDAYEYSCNKLNSYMRQTKKMTGRELDKYNLKIRQAALAVKKMDAEYRETNELLLTVTREWIDRWTEVCDAFQHIEEYRLEFLKTNMWAYANIISTACVKDDESCEKIRLTLENTNIDEDITQMIQNEGTGTTIPPLPEFNDYFKENGLNYDIDQLISKAPSYPYSSSRPSASASLASSPTRSAFRPKTSETVSSEVVSSPPTSPLHSPVKPVSNEQVEQVTEVELSIPVPSIQEAESQKPVLTGSSMRRPSVTSPTFEVAARPLTSMDVRSSHNAETEVQAIPAATDISPEVKEGKNSENAITKDNDDIILSSQLQPTATGSRSSRLSFSRHGHGSQTSLGSIKRKSIMERMGRPTSPFMGSSFSNMGSRSTSPTKEGFASNQHATGASVQSDELEDIDPRANVVLNVGPNMLSVGEAPVESTSKEEDKDVPDPIANAMAELSSSMRRRQSTSVDDEAPVSLSKTSSSTRLNGLGYHSRNTSIASDIDGVPKKSTLGAPPAAHTSAQMQRMSNSFASQTKQVFGEQRTENSARESLRHSRSNMSRSPSPMLSRRSSTLRPSFERSASSLSVRQSDVVSPAPSTRARGQSVSGQQRPSSSMSLYGEYNKSQPQLSMQRSVSPNPLGPNRRSSSVLQSQKSTSSNTSNRNNGGYSGSRPSSEMGHRYGSMSGRSMRQVSQRSTSRARSPEPTNRNSVQSKNVDPRATFTAEGEPILGYVIALYDYQAQIPEEISFQKGDTLMVLRTQEDGWWDGEIINVPNSKRGLFPSNFVQTV
percent pulled down from lysate (Blt1p-hexahistidine): 23%
